Laboratory results: patent US20240182556A1 (OPSIDIO, published 2024)

T1: exon 6 peptide (ASSLRNDSSSSNRKAKNPPGDS), coated on ELISA plate (not fully specified)
T1 construct: No biotin is mentioned for the ELISA coat; also called a peptide of SCF248
T1 peptide: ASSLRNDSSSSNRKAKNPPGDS


How the values were obtained:
[1] = target: human SCF248 (stem cell factor 248 isoform) expressed on mouse SI/SI4 cells (human), P21583; assay: cell-based or functional assay
[2] = target: T1, exon 6 peptide …; assay: direct ELISA on coated peptide, IgG4, read at 450 nm
Method: A direct enzyme-linked immunosorbent assay (ELISA) was performed to evaluate binding of the clones of Example 2 (referred to in all additional examples as “mutants”) to the Exon 6 peptide. The mutants were expressed as full length IgG4 antibodies.
The plate was incubated at 4° C. overnight. […] Both plates were washed with wash buffer twice. Then, the plates were blocked with blocking buffer for 1 hour at 37° C. The plates were then washed with wash buffer twice. […] The plate was covered and incubated for 1 hour at 37° C. The plates were then washed with wash buffer three times. The secondary antibody was added to the plates. The plates were covered and incubated for 1 hour at 37° C. The plates were then washed with wash buffer three times. 100 μL of detection substrate was added to each well of the plates. The plates were covered and incubated for 10-20 minutes at room temperature. Subsequently, 100 μL of stop solution was added to the plates. Each plate was read at an absorbance of 450 nm.
Reagents: Coating buffer contained 1.5M NaCl, 0.5M […], and 1.0N NaOH. Wash buffer contained 0.05% Tween-20 in PBS. Blocking buffer contained 2.0% normal goat serum in wash buffer. The dilution buffer was wash buffer and 2% FCS. The secondary antibody was a goat anti-human IgG HRP conjugate, purchased from Millipore (Catalogue Number: AP309P). The secondary antibody was diluted 1:1000. The detection substrate was prepared by dissolving 4 O-phenylenediamine dihydrochloride (OPD) tablets dissolved in 12 mL sterile distilled water. 5 μL of hydrogen peroxide (30% v/v) was added to the detection substrate immediately before adding substrate to the wells. The stop solution contained 0.5 M H₂SO₄.

human SCF248 (stem cell factor 248 isoform) expressed on mouse SI/SI4 cells (human), P21583, sequence (P21583 26-273): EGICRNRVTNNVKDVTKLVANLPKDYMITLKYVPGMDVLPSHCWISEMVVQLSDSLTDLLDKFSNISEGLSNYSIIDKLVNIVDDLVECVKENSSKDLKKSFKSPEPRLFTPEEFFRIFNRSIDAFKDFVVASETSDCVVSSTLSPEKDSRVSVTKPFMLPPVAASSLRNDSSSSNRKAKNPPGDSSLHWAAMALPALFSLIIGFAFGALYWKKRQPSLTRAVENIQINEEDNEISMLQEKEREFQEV

| CCL2 Expression as Percentage of Positive Control [1] | TGFβ Expression as Percentage of Positive Control [1] | absorbance at 0.1 ng/mL antibody [2] | absorbance at 0.5 ng/mL antibody [2] | absorbance at 1 ng/mL antibody [2] | absorbance at 5 ng/mL antibody [2] | absorbance at 100 ng/mL antibody [2] | absorbance at 1000 ng/mL antibody [2] | Binder |
| --- | --- | --- | --- | --- | --- | --- | --- | --- |
| 35.6% | 65.8% | 0.131 absorbance | 0.193 absorbance | 0.56 absorbance | 1.48 absorbance | 2.67 absorbance | 3.14 absorbance | A84P mutant expressed as full length IgG4 antibody (antibody, V domains shown, Full length IgG4) VH: QVQLVQSGAELKKPGSSVKISCKSSGYAFSSQWMNWVKQRPGQGLEWIGQIYPEDGDTHMNGKFKGKATLTADKSTSTAYMELSSLTSEDSAVYFCSSSNWVGSYWGQGTLVTVSS VL: DVVMTQSPLSLPVTLGQPASISCKSSQSLLEEDGNTYLNWLQQRPGQSPRRLIYLVDRLDIGVPDRFSGSGSGTDFTLKISRVEAEDVGVYYCWQGTDLPQTFGGGTKVEIK |
| 59.1% | 59.5% | 0.098 absorbance | 0.127 absorbance | 0.446 absorbance | 1.11 absorbance | 2.43 absorbance | 2.81 absorbance | B114P mutant expressed as full length IgG4 antibody (antibody, V domains shown, Full length IgG4) VH: QVQLVQSGAELKKPGSSVKISCKSSGYAFSSQWMNWVKQRPGQGLEWIGQIYPEDGDTHMNGKFKGKATLTADKSTSTAYMELSSLTSEDSAVYFCSSSNWDGSYWGQGTLVTVSS VL: DVVMTQSPLSLPVTLGQPASISCKSSQSLLEEDGNTYLNWLQQRPGQSPRRLIYLVDRLDSGVPDRFSGSGSGTDFTLKISRVEAEDVGVYYCWQGTDLPQTFGGGTKVEIK |
| 56.2% | 77.1% | 0.204 absorbance | 0.537 absorbance | 0.597 absorbance | 1.42 absorbance | 1.81 absorbance | 2.32 absorbance | H83P mutant expressed as full length IgG4 antibody (antibody, V domains shown, Full length IgG4) VH: QVQLVQSGAELKKPGSSVKISCKSSGYAFSSQWMNWVKQRPGQGLEWIGQIYPGDGDIHYNDKFKGKATLTADKSTSTAYMELSSLTSEDSAVYFCSSSNWVGSYWGQGTLVTVSS VL: DVVMTQSPLSLPVTLGQPASISCKSSQSLLESDGNTYLNWLQQRPGQSPRRLIYLVDRLDSGVPDRFSGSGSGTDFTLKISRVEAEDVGVYYCWQGTDLPQTFGGGTKVEIK |
| 31.7% | 43.9% | 0.0855 absorbance | 0.174 absorbance | 0.527 absorbance | 1.13 absorbance | 1.83 absorbance | 2.48 absorbance | B104P mutant expressed as full length IgG4 antibody (antibody, V domains shown, Full length IgG4) VH: QVQLVQSGAELKKPGSSVKISCKSSGYAFSSQWMNWVKQRPGQGLEWIGQIYPDDGDTHYNDKFKGKATLTADKSTSTAYMELSSLTSEDSAVYFCSSSNWVGSYWGQGTLVTVSS VL: DVVMTQSPLSLPVTLGQPASISCKSSQSLLEADGNTYLNWLQQRPGQSPRRLIYLVDRLDSGVPDRFSGSGSGTDFTLKISRVEAEDVGVYYCWQGTDLPQTFGGGTKVEIK |
| 27.4% | 46.9% | 0.092 absorbance | 0.305 absorbance | 1.02 absorbance | 1.57 absorbance | 2.6 absorbance | 2.94 absorbance | A104P mutant expressed as full length IgG4 antibody (antibody, V domains shown, Full length IgG4) VH: QVQLVQSGAELKKPGSSVKISCKSSGYAFSSQWMNWVKQRPGQGLEWIGQIYPEDGDTHYNGKFKGKATLTADKSTSTAYMELSSLTSEDSAVYFCSSSNWVGSYWGQGTLVTVSS VL: DVVMTQSPLSLPVTLGQPASISCKSSQSLLEEDGNTYLNWLQQRPGQSPRRLIYLVDRLDSGVPDRFSGSGSGTDFTLKISRVEAEDVGVYYCWQGTDLPQTFGGGTKVEIK |
| 55.9% | 49.6% | 0.0985 absorbance | 0.183 absorbance | 0.629 absorbance | 1.32 absorbance | 2.4 absorbance | 2.76 absorbance | B124P mutant expressed as full length IgG4 antibody (antibody, V domains shown, Full length IgG4) VH: QVQLVQSGAELKKPGSSVKISCKSSGYAFSSNWMNWVKQRPGQGLEWIGQIYPEDGDTHYNDKFKGKATLTADKSTSTAYMELSSLTSEDSAVYFCSSSNWVGSYWGQGTLVTVSS VL: DVVMTQSPLSLPVTLGQPASISCKSSQSLLEQDGNTYLNWLQQRPGQSPRRLIYLVDRLDSGVPDRFSGSGSGTDFTLKISRVEAEDVGVYYCWQGTDLPQTFGGGTKVEIK |

Continued, binder first:

| Binder | CCL2 Expression as Percentage of Positive Control [1] | TGFβ Expression as Percentage of Positive Control [1] | absorbance at 0.1 ng/mL antibody [2] | absorbance at 0.5 ng/mL antibody [2] | absorbance at 1 ng/mL antibody [2] | absorbance at 5 ng/mL antibody [2] | absorbance at 100 ng/mL antibody [2] | absorbance at 1000 ng/mL antibody [2] |
| --- | --- | --- | --- | --- | --- | --- | --- | --- |
| 5H10 VK3/VH1 humanized antibody of Table 1 (antibody, V domains shown) VH: QVQLVQSGAELKKPGSSVKISCKSSGYAFSSYWMNWVKQRPGQGLEWIGQIYPGDGDTHYNGKFKGKATLTADKSTSTAYMELSSLTSEDSAVYFCSSSNWVGSYWGQGTLVTVSS VL: DVVMTQSPLSLPVTLGQPASISCKSSQSLLESDGKTYLNWLQQRPGQSPRRLIYLVSRLDSGVPDRFSGSGSGTDFTLKISRVEAEDVGVYYCWQGTHLPQTFGGGTKVEIK | 37% | 65.5% | – | – | – | – | – | – |
| F54P mutant expressed as full length IgG4 antibody (antibody, V domains shown, Full length IgG4) VH: QVQLVQSGAELKKPGSSVKISCKSSGYAFSSQWMNWVKQRPGQGLEWIGQIYPEDGDTHMNGKFKTKATLTADKSTSTAYMELSSLTSEDSAVYFCSSSNWVGSYWGQGTLVTVSS VL: DVVMTQSPLSLPVTLGQPASISCKSSQSLLEEDGNTYLNWLQQRPGQSPRRLIYLVDRLDSGVPDRFSGSGSGTDFTLKISRVEAEDVGVYYCWQGTDLPQTFGGGTKVEIK | 55.7% | 74.6% | 0.11 absorbance | 0.367 absorbance | 0.446 absorbance | 1.35 absorbance | 1.57 absorbance | 2.42 absorbance |
| D14P mutant expressed as full length IgG4 antibody (antibody, V domains shown, Full length IgG4) VH: QVQLVQSGAELKKPGSSVKISCKSSGYAFSSQWMNWVKQRPGQGLEWIGQIYPGDDDTHYNDKFKGKATLTADKSTSTAYMELSSLTSEDSAVYFCSSSNWVGSYWGQGTLVTVSS VL: DVVMTQSPLSLPVTLGQPASISCKSSQSLLESDGNTYLNWLQQRPGQSPRRLIYLVDRLDLGVPDRFSGSGSGTDFTLKISRVEAEDVGVYYCWQGTDLPQTFGGGTKVEIK | 46.8% | 48.8% | 0.137 absorbance | 0.266 absorbance | 0.861 absorbance | 1.81 absorbance | 2.53 absorbance | 3.15 absorbance |
| D44P mutant expressed as full length IgG4 antibody (antibody, V domains shown, Full length IgG4) VH: QVQLVQSGAELKKPGSSVKISCKSSGYAFSSQWMNWVKQRPGQGLEWIGQIYPEDGDIHYNGKFKGKATLTADKSTSTAYMELSSLTSEDSAVYFCSSSNWVGSYWGQGTLVTVSS VL: DVVMTQSPLSLPVTLGQPASISCKSSQSLLEEDGNTYLNWLQQRPGQSPRRLIYLVDRLDSGVPDRFSGSGSGTDFTLKISRVEAEDVGVYYCWQGSHLPQTFGGGTKVEIK | 42.2% | 58.5% | 0.0895 absorbance | 0.207 absorbance | 0.744 absorbance | 1.98 absorbance | 2.16 absorbance | 2.9 absorbance |
| H74P mutant expressed as full length IgG4 antibody (antibody, V domains shown, Full length IgG4) VH: QVQLVQSGAELKKPGSSVKISCKSSGYAFSSQWMNWVKQRPGQGLEWIGQIYPEDGDTHYNGKFKGKATLTADKSTSTAYMELSSLTSEDSAVYFCSSSNWVGSYWGQGTLVTVSS VL: DVVMTQSPLSLPVTLGQPASISCKSSQSLLEEDGNTYLNWLQQRPGQSPRRLIYLVDRLDLGVPDRFSGSGSGTDFTLKISRVEAEDVGVYYCWQGSHLPQTFGGGTKVEIK | 40.6% | 58.4% | 0.105 absorbance | 0.249 absorbance | 0.58 absorbance | 1.3 absorbance | 2.56 absorbance | 3 absorbance |
| A64P mutant expressed as full length IgG4 antibody (antibody, V domains shown, Full length IgG4) VH: QVQLVQSGAELKKPGSSVKISCKSSGYAFSSNWMNWVKQRPGQGLEWIGQIYPEDGDTHYNGKFKGKATLTADKSTSTAYMELSSLTSEDSAVYFCSSSNWVGSYWGQGTLVTVSS VL: DVVMTQSPLSLPVTLGQPASISCKSSQSLLEEDGNTYLNWLQQRPGQSPRRLIYLVNRLDDGVPDRFSGSGSGTDFTLKISRVEAEDVGVYYCWQGTDLPQTFGGGTKVEIK | 22.9% | 47.9% | 0.122 absorbance | 0.172 absorbance | 0.564 absorbance | 1.41 absorbance | 2.71 absorbance | 3.12 absorbance |
